Experimental data published in patent publication EP2074145B1.

Target: Amyloid Beta (antigen of the Amyloid Beta ELISA) (UniProt P05067)
Experiment: Amyloid Beta ELISA; purified antibodies from stable NS0 cell lines

Amyloid Beta (antigen of the Amyloid Beta ELISA), sequence (P05067 672-713 limits assumed): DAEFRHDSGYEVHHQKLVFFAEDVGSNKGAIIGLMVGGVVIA

- fold reduction of binding activity compared to chimeric control antibody C2 ChVHAF/ChVK: 2 fold
B1: humanized antibody C2 HuVH2/HuVK3 (antibody, human IgG4 S228P, kappa, V domains shown)
VH: EVQLVESGGGLVQPGGSLRLSCAASGFTFSSYGMSWVRQAPGKGLEWVASINSNGGSTYYPDSVKGRFTISRDNAKNSLYLQMNSLRAEDTAVYYCASGDYWGQGTTVTVSS
VL: DIVMTQSPLSLPVTPGEPASISCRSSQSLVYSNGDTYLHWYLQKPGQSPKLLIYKVSNRFSGVPDRFSGSGSGTDFTLKISRVEAEDVGVYYCSQSTHVPWTFGQGTKVEIKR
